The source of these data is FireProtDB (doi:10.1002/pro.5560030904).

The conditions of the data set: Oryctolagus cuniculus; pH 7.4; Thermal; DSC; sodium phosphate 10 mM; transition: 4; reversible: yes; whole UniProt chain shown.

Where “and” joins values, the source holds several entries; their conditions need not be identical. Equal values may be shown once.

B1: Fructose-bisphosphate aldolase A wild type, P00883 (protein)
chain: MPHSHPALTPEQKKELSDIAHRIVAPGKGILAADESTGSIAKRLQSIGTENTEENRRFYRQLLLTADDRVNPCIGGVILFHETLYQKADDGRPFPQVIKSKGGVVGIKVDKGVVPLAGTNGETTTQGLDGLSERCAQYKKDGADFAKWRCVLKIGEHTPSALAIMENANVLARYASICQQNGIVPIVEPEILPDGDHDLKRCQYVTEKVLAAVYKALSDHHIYLEGTLLKPNMVTPGHACTQKYSHEEIAMATVTALRRTVPPAVTGVTFLSGGQSEEEASINLNAINKCPLLKPWALTFSYGRALQASALKAWGGKKENLKAAQEEYVKRALANSLACQGKYTPSGQAGAAASESLFISNHAY
B1: the “unfolding enthalpy (calorimetric)” value was 61 kcal/mol and 34 kcal/mol.
